We go through three molecules from paper PMC7521599.

Experiment [1] deals with Skp1 (OCP2) (Cavia porcellus) (UniProt P63209). The settings on record: cited from earlier work.
Experiment [2] deals with Skp1ΔΔ (doubly truncated Dictyostelium Skp1A: Δinternal loop/ΔC-terminus) (Dictyostelium discoideum) (UniProt P52285). Description: AUC.
Experiment [3] concerns the target T1, Dictyostelium discoideum Skp1A (Dictyostelium discoideum), P52285.
T1 chain: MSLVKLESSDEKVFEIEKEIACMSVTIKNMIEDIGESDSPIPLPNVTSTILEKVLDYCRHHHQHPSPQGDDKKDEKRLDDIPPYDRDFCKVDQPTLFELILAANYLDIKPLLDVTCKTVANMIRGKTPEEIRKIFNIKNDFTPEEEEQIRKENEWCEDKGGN
Description: AUC. The settings on record: remark: other sources report otherwise.

Usually Kd stands for the equilibrium constant for the complex coming apart. The stoichiometry N is the number of molecules, sites or subunits per partner or assembly.

For Skp1 (OCP2) (from UniProt P63209), the Kd in experiment [1] is 1100 nM. In turn, “Skp1ΔΔ (doubly truncated Dictyostelium Skp1A: Δinternal loop/ΔC-terminus) (from UniProt P52285 1-125) (domain or fragment)” registered a stoichiometry N in experiment [2] of 2.

B1: Dictyostelium discoideum Skp1A, P52285 1-162 (natural protein)
chain: T1 chain
In experiment [3], B1 returned a Kd of 2500 nM and a stoichiometry N of 2.
